Article PMC8361300

Tests used:
[1] = target: Nucleobindin-2 from Gallus gallus (ggNucb2) (Gallus gallus); assay: SAXS; protein 3.5 mg/ml with 5 mM EDTA, 10 mM Ca2+, 10 mM Mg2+ or 100 µM Zn2+; molecular mass from I(0) against BSA
[2] = target: Nucleobindin-2 from Gallus gallus (ggNucb2) (Gallus gallus); assay: AUC; sedimentation velocity, 50,000 rpm, 20 °C, buffer C (20 mM Tris-HCl, 150 mM NaCl, pH 7.5) with 100 µM ZnCl2 (also 200 and 300 µM); protein 0.5, 0.75 and 1.0 mg/ml; c(s) model
[3] = target: Nucleobindin-2 from Gallus gallus (Gallus gallus); assay: ITC; Ca2+ (4000 µM) titrated into ggNucb2 (50 µM), 25 °C, 20 mM HEPES, 150 mM NaCl, pH 7.5; broad range fit to the AA BB model with ligand-mediated dimerization ((A + A) + B + B to (AA)BB) in SEDPHAT; constant of the step monomers to dimer
[4] = target: Nucleobindin-2 from Homo sapiens (hsNucb2) (Homo sapiens); assay: SAXS; protein 3.5 mg/ml with 5 mM EDTA, 10 mM Ca2+, 10 mM Mg2+ or 100 µM Zn2+; molecular mass from I(0) against BSA
[5] = target: Nucleobindin-2 from Homo sapiens (hsNucb2) (Homo sapiens); assay: AUC; sedimentation velocity, 50,000 rpm, 20 °C, buffer C (20 mM Tris-HCl, 150 mM NaCl, pH 7.5) with 5 mM EDTA (apo); protein 0.5, 0.75 and 1.0 mg/ml; c(s) model

Work on “Nucleobindin-2 from Gallus gallus (ggNucb2) (natural protein)” yielded a stoichiometry N [1] of 2 and a stoichiometry N [2] greater than 2.
Work on “Nucleobindin-2 from Gallus gallus (natural protein)” yielded a Kd [3] of 0.016 µM.
With “Nucleobindin-2 from Homo sapiens (hsNucb2) (natural protein)” the stoichiometry N [4] was 2 and the stoichiometry N [5] was 2.
